Assay results taken from article PMC12196928, “Site-Directed Mutagenesis Mediated by Molecular Modeling and Docking and Its Effect on the Protein–Protein Interactions of the bHLH Transcription Factors SPATULA, HECATE1, and INDEHISCENT” (Plants, 2025).

T1: VN:SPT (SPATULA fused to the N-terminal fragment of Venus YFP) (Arabidopsis thaliana, UniProt Q9FUA4 1-373)
T1 construct: SPATULA (SPT), bHLH transcription factor of Arabidopsis thaliana, AT4G36930; source: Arabidopsis Col-0 mesophyll protoplasts, transfected (PEG-Ca), in cells; not shown: Venus YFP N-terminal fragment (residues 1-154)
T1 sequence (looked up): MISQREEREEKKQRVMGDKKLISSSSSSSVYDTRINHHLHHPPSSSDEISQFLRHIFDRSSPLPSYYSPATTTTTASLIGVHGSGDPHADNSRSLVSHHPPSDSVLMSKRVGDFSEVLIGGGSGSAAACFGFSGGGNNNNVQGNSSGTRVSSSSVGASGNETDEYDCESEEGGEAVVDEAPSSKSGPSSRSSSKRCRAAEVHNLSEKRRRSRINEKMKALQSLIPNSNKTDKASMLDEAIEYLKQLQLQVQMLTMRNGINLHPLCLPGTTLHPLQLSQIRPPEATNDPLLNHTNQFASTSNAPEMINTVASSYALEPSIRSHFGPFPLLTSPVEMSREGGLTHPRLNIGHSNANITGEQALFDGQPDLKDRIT

T2: VN:SPT-4A (SPATULA V176A-V177A-D178A-E179A fused to the N-terminal fragment of Venus YFP) (Arabidopsis thaliana, UniProt Q9FUA4 1-373, V176A | V177A | D178A | E179A)
T2 construct: SPATULA (SPT), Arabidopsis thaliana, AT4G36930; source: Arabidopsis Col-0 mesophyll protoplasts, transfected (PEG-Ca), in cells; not shown: Venus YFP N-terminal fragment (residues 1-154)
T2 sequence (looked up): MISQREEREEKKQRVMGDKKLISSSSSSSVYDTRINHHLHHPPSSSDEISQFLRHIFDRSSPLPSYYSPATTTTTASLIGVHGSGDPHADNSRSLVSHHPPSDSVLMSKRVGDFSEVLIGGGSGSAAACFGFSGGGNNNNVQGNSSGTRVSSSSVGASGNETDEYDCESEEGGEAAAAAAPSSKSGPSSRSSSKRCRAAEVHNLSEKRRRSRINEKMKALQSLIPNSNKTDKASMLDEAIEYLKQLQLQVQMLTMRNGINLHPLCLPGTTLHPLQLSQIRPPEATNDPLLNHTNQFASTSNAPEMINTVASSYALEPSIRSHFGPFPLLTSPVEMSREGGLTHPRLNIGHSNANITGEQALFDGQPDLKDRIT

B1: VC:HEC1 (HECATE1 fused to the C-terminal fragment of Venus YFP) (natural protein, Arabidopsis thaliana, UniProt Q9FHA7 1-241, looked up)
chain: MDSDIMNMMMHQMEKLPEFCNPNSSFFSPDHNNTYPFLFNSTHYQSDHSMTNEPGFRYGSGLLTNPSSISPNTAYSSVFLDKRNNSNNNNNGTNMAAMREMIFRIAVMQPIHIDPEAVKPPKRRNVRISKDPQSVAARHRRERISERIRILQRLVPGGTKMDTASMLDEAIHYVKFLKKQVQSLEEQAVVTGGGGGGGGRVLIGGGGMTAASGGGGGGGVVMKGCGTVGTHQMVGNAQILR
notes: HECATE1 (HEC1), bHLH transcription factor of Arabidopsis thaliana, AT5G67060; source: Arabidopsis Col-0 mesophyll protoplasts, transfected (PEG-Ca), in cells; not shown: Venus YFP C-terminal fragment (residues 155-238)
B2: VC:IND (INDEHISCENT fused to the C-terminal fragment of Venus YFP) (natural protein, Arabidopsis thaliana, UniProt O81313 1-198, looked up)
chain: MENGMYKKKGVCDSCVSSKSRSNHSPKRSMMEPQPHHLLMDWNKANDLLTQEHAAFLNDPHHLMLDPPPETLIHLDEDEEYDEDMDAMKEMQYMIAVMQPVDIDPATVPKPNRRNVRISDDPQTVVARRRRERISEKIRILKRIVPGGAKMDTASMLDEAIRYTKFLKRQVRILQPHSQIGAPMANPSYLCYYHNSQP
notes: INDEHISCENT (IND), bHLH transcription factor of Arabidopsis thaliana, AT4G00120; source: Arabidopsis Col-0 mesophyll protoplasts, transfected (PEG-Ca), in cells; not shown: Venus YFP C-terminal fragment (residues 155-238)
B3: VC:IND-3A (INDEHISCENT N112A-R113A-R114A fused to the C-terminal fragment of Venus YFP) (natural protein, Arabidopsis thaliana, UniProt O81313 1-198, looked up)
chain: MENGMYKKKGVCDSCVSSKSRSNHSPKRSMMEPQPHHLLMDWNKANDLLTQEHAAFLNDPHHLMLDPPPETLIHLDEDEEYDEDMDAMKEMQYMIAVMQPVDIDPATVPKPAAANVRISDDPQTVVARRRRERISEKIRILKRIVPGGAKMDTASMLDEAIRYTKFLKRQVRILQPHSQIGAPMANPSYLCYYHNSQP
notes: INDEHISCENT (IND), Arabidopsis thaliana, AT4G00120; the methods list only VC:IND-3A; source: Arabidopsis Col-0 mesophyll protoplasts, transfected (PEG-Ca), in cells; not shown: Venus YFP C-terminal fragment (residues 155-238)

Tests used:
[1] = target: T1, VN:SPT (SPATULA fused to the N-terminal …); assay: split reporter (BiFC, NanoBiT); BiFC with split Venus YFP (VN 1-154, VC 155-238) in Arabidopsis Col-0 mesophyll protoplasts, PEG-Ca transfection, 35S promoter, read 16 h after transfection by confocal microscopy; frequency = YFP-positive protoplasts/total protoplasts x 100, four images of about 200 protoplasts each; details: partners not purified
VN:SPT-4A (SPATULA …) = target: T2, VN:SPT-4A (SPATULA …); assay: as above; details: partners not purified

Row | Binder | average interaction frequency (percent of protoplasts with YFP signal) [1] [%] | average interaction frequency (percent of protoplasts with YFP signal) (VN:SPT-4A (SPATULA …)) [%]
1 | B1 | 34.2 | 
2 | B2 |  | 13.5
3 | B3 | 13 | 14.9
